Test results as given in publication PMC7374170 (2020).
Values joined by “and” are separate entries in the source; they are usually repeats but may differ in a detail not shown here. Equal values may be shown once.

B1: TRIB3 (tribbles pseudokinase 3), purified protein (natural protein)
chain: MRATPLAAPAGSLSRKKRLELDDNLDTERPVQKRARSGPQPRLPPCLLPLSPPTAPDRATAVATASRLGPYVLLEPEEGGRAYQALHCPTGTEYTCKVYPVQEALAVLEPYARLPPHKHVARPTEVLAGTQLLYAFFTRTHGDMHSLVRSRHRIPEPEAAVLFRQMATALAHCHQHGLVLRDLKLCRFVFADRERKKLVLENLEDSCVLTGPDDSLWDKHACPAYVGPEILSSRASYSGKAADVWSLGVALFTMLAGHYPFQDSEPVLLFGKIRRGAYALPAGLSAPARCLVRCLLRREPAERLTATGILLHPWLRQDPMPLAPTRSHLWEAAQVVPDGLGLDEAREEEGDREVVLYG

Key:
[1] = molecular target: B1; assay: SPR
[2] = molecular target: T1, SAH-JGZ4, stapled JGZ peptide (UniProt P00533, two units of nonnatural alkenyl amino acids S5 at the relative positions i and i + 4, cross-linked by ring-closing olefin metathesis); assay: FP
SAH-JGZ2 = assay: SPR
[3] = molecular target: T1, SAH-JGZ4, stapled JGZ peptide; assay: SPR
[4] = molecular target: T1, SAH-JGZ4, stapled JGZ peptide; assay: SPR; remark: listed apart in the source
JGZ-M1 = assay: SPR
JGZ-M11 = assay: SPR
JGZ-M4 = assay: SPR
JGZ-M15 = assay: SPR
JGZ-M12 = assay: SPR
JGZ-M10 = assay: SPR
JGZ-M2 = assay: SPR
JGZ-M6 = assay: SPR
JGZ-M13 = assay: SPR

Row | Kd [1] [nM] | Kd [2] [nM] | Kd (SAH-JGZ2) [nM] | Kd [3] | Kd [4] [nM] | Kd (JGZ-M1) [nM] | Kd (JGZ-M11) [nM] | Kd (JGZ-M4) [nM] | Kd (JGZ-M15) [nM] | Kd (JGZ-M12) [nM] | Kd (JGZ-M10) [nM] | Kd (JGZ-M2) [nM] | Kd (JGZ-M6) [nM] | Kd (JGZ-M13) [nM] | Binder
1 | 1060 | – | – | – | – | – | – | – | – | – | – | – | – | – | NQALLRIIKETEFK [JMA2 peptide with the Leu-to-Ile substitution]
2 | – | 55.4 | 235 | 84.1 nM and 66.1 nM | 137 | 642 | 892 | 2470 | 1160 | 402 | 337 | 424 | 1210 | 796 | B1
3 | 5370 | – | – | – | – | – | – | – | – | – | – | – | – | – | NQALLRIVKETEFK [JMA2 peptide with the Leu-to-Val substitution]
